Laboratory results published in publication PMC10275042.

Target: NBS1 (UniProt O60934)
Experiment: anti-Flag co-IP
Conditions: reference: wild-type Syk-Flag; sites T504

For Syk (from UniProt P43405) Syk T504A, the “binding against the reference” value was “lost”.
